Test results from US7425333B2, “Hypoallergenic allergy vaccines based on the timothy grass pollen allergen Phl p 7” (Biomay Produktions-und Handels-Aktiengesellschaft, priority 2002, dated 2008).

How the values were obtained:
[1] = tested on: timothy grass pollen allergic patients and a non-atopic individual; assay: Skin prick testing (SPT), immediate type skin reactions; format: in vivo, human; conditions: for mean wheal diameter: 8 μg/ml, timothy grass pollen allergic patients, 20 minutes; for skin reactions in the non-allergic individual: non-allergic individual (#4)
Experimental: The in vivo allergenic activity of the peptides and the mutant was studied by skin prick testing (SPT) in 3 timothy grass pollen allergic patients and a non-atopic individual. SPTs were performed on the individuals' forearms. Twenty microliter aliquots containing 2 concentrations of complete rPhl p 7 or Phl p 7-derived mutant M4 (2 μg/ml, 8 μg/ml) as well as two concentrations of Phl p 7-derived peptides (1 μg/ml m, 4 μg/ml ) were applied. In addition, standardized skin prick solutions (timothy grass pollen extract and histamine) (Allergopharma, Reinbeck, Germany) were tested. Reactions were recorded 20 minutes after SPT by photography and by transferring the ballpoint pen-surrounded wheal area with a scotch tape to paper. The mean wheal diameter (Dm) was calculated by measuring the maximal longitudinal and transversal diameter and dividing their sum by 2.

[2] = Secondary structure analysis by far-UV CD; format: physicochemical; conditions: for secondary structure (far-UV CD spectra): 20° C., 0.1 cm cell
Experimental: CD measurements were carried out on a Jasco J-715 spectropolarimeter using a 0.1 cm pathlength cell equilibrated at 20° C. Spectra were recorded with 0.5 nm resolution at a scan speed of 100 nm/min and resulted from averaging 3 scans. The final spectra were baseline-corrected by subtracting the corresponding MilliQ spectra obtained under identical conditions. Results were fitted with the secondary structure estimation program J-700.

Solubility observation = format: physicochemical
[3] = tested on: basophils of a timothy grass pollen allergic individual; assay: Basophil histamine release; format: cell-based, human; conditions: granulocytes of one allergic individual; for concentration of maximum histamine release: 10^−6-10 μg/ml tested
Experimental: FIG. 3A, B. Induction of histamine release from basophils of a timothy grass pollen allergic patient. Granulocytes of a timothy grass pollen allergic patient were incubated with various concentrations (x-axis) of rPhl p 7 wild type (P7), Phl p 7-derived peptides (P1, P2), Phl p 7-derived mutant (M4) or another antigen (Hom s 4) (FIG. 3A).
Granulocytes were isolated from heparinized blood samples of a timothy grass pollen allergic individual by dextran sedimentation. Cells were incubated with increasing concentrations (10^−6-10 μg/ml) of each peptide or the mutant, and, for control purposes, with rPhl p 7 wild type. Histamine released in the cell-free culture supernatant was measured by radioimmunoassay (Immunotech, Marseille, France). Total histamine was determined after freezing and thawing of the cells.

[4] = tested on: serum IgE of Phl p 7-sensitized grass pollen allergic patients; assay: IgE binding, dot blot with sera from ten timothy grass pollen allergic patients; parameters: species or system human
Excerpt: The polypeptides of the invention show reduced binding to IgE antibodies from timothy grass pollen allergic patients compared with wild type Phl p 7 (SEQ ID NO:1). […] Recombinant Phl p 7 consisting substantially of the amino acid sequence as shown in SEQ ID NO:1 can be used to determine the IgE binding activity of wild type Phl p 7. IgE binding of polypeptides may be determined by Western blot analysis or dot blot experiments using serum from a timothy grass pollen allergic patient. Timothy grass pollen allergy is diagnosed according to a case history indicative for timothy grass pollen allergy (i.e., seasonal symptoms of allergy during the flowering period of grasses), positive skin test reaction to timothy grass pollen allergens and/or the detection of specific IgE antibodies to timothy grass pollen allergens in serum. Dot blots can be quantified by measuring the amount of ^125I-labeled anti-human IgE antibodies by gamma counting as described (Niederberger et al. J. Allergy Clin. Immunol. 1998, 102, 579-591).
(§1) Nitrocellulose blotted rPhl p 7 (lane Phl p 7) and rPhl p 7-derived mutants (lanes M1.6, M2A, M4) were probed with serum from a Phl p 7-sensitized grass pollen allergic patient. Bound IgE antibodies were detected with ^125I-labeled anti human IgE antibodies (FIG. 2A). Nitrocellulose dotted Phl p 7 and Phl p 7-derived mutants (M1.6, M2A, M4) as well the Phl p 7-derived peptides were probed with sera from ten Phl p 7-sensitized grass pollen allergic patients. Bound IgE antibodies were detected with ^125I-labeled anti human IgE antibodies (FIG. 2B).
(§2) The IgE binding capacity of purified Phl p 7-derived mutants (M1.6, M2A, M4) was compared with that of Phl p 7 wild type by western blot analysis using serum from a timothy grass pollen allergic patient (FIG. 2A) as well as by dot blot experiments using sera from ten timothy grass pollen allergic patients (FIG. 2B).
The IgE binding capacity of Phl p 7-derived peptides was compared with that of Phl p 7 wild type by dot blot experiments using sera from ten timothy grass pollen allergic patients (FIG. 2B). For both peptides the IgE binding capacity was completely abolished, when tested with serum from ten timothy grass pollen allergic patients.

[5] = tested on: serum IgE of a Phl p 7-sensitized grass pollen allergic patient; assay: IgE binding, western blot with serum of a timothy grass pollen allergic patient; parameters: species or system human; conditions: serum from one timothy grass pollen allergic patient
Excerpt: as §1, §2

recombinant Aln g 4 = assay: Rabbit immunization, antiserum reactivity with Aln g 4 by dot blot; format: in vivo; conditions: rabbit antiserum diluted 1:1000
Sequence of recombinant Aln g 4 (O81701 whole entry): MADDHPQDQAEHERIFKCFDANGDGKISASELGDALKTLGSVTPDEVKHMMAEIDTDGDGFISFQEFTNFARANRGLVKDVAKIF

rPhl p 7 wild type = assay: Rabbit immunization, IgG reactivity with Phl p 7 by dot blot; format: in vivo; conditions: rabbits, 200 μg/injection, Freund's adjuvant; antiserum 1:500-1:2000

Molecule: NCCc1c[nH]cn1 [histamine, reference compound]
- skin reaction to positive control ([1]; all individuals (3 allergic, 1 non-allergic)): All individuals reacted

Molecule: N-terminal peptide: synthetic peptide comprising the complete N-terminal calcium-binding domain of Phl p 7 (SEQ ID NO:2), one cysteine added
- secondary structure (far-UV CD spectra) [2]: random coil secondary structure

Molecule: C-terminal peptide: synthetic peptide comprising the complete C-terminal calcium-binding domain of Phl p 7 (SEQ ID NO:3), one cysteine added
- solubility (Solubility observation): significant decreased solubility and precipitation
- secondary structure (far-UV CD spectra) [2]: unfolded

B1: Phl p 7 wild type: recombinantly produced wild type timothy grass pollen allergen Phl p 7, amino acid sequence SEQ ID NO:1 (protein)
chain: MADDMERIFKRFDTNGDGKISLSELTDALRTLGSTSADEVQRMMAEIDTDGDGFIDFNEFISFCNANPGLMKDVAKVF
modifications: Phleum pratense
- concentration of maximum histamine release [3]: 10^−4 μg/ml
- immediate type skin reactions ([1]; skin prick test, 2 μg/ml): induced immediate type skin reactions
- mean wheal diameter ([1]; skin prick test): 9.3 mm
- skin reactions in the non-allergic individual ([1]; skin prick test): no reactions
- secondary structure (far-UV CD spectra) [2]: significant larger α-helical signal

B2: M2A: Phl p 7-derived mutant, SEQ ID NO:5: 17D→A, 24E→24A; 59E→59A (protein)
chain: MADDMERIFKRFDTNGAGKISLSALTDALRTLGSTSADEVQRMMAEIDTDGDGFIDFNAFISFCNANPGLMKDVAKVF
- patients whose serum IgE bound (dot blot) [4]: five out of ten

B3: M4: Phl p 7-derived mutant, SEQ ID NO:6: 17D→A, 24E→24A; 52D→52A, 59E→59A (protein)
chain: MADDMERIFKRFDTNGAGKISLSALTDALRTLGSTSADEVQRMMAEIDTDGAGFIDFNAFISFCNANPGLMKDVAKVF
- IgE binding capacity compared to Phl p 7 (western blot) [5]: strongest reduction
- concentration of maximum histamine release [3]: 10^−3 μg/ml
- induction of histamine release ([3]; increasing concentrations): dose-dependent release of histamine
- mean wheal diameter ([1]; skin prick test): 7 mm
- immediate skin reactions compared with Phl p 7 wild type ([1]; skin prick test, allergic patients): moderately weaker
- skin reactions in the non-allergic individual ([1]; skin prick test): no reactions
- secondary structure (far-UV CD spectra) [2]: increasing portion of random-coil secondary structure
- decrease of CD signal in contrast to normalized spectrum of rPhl p 7 ([2]; second analysis comparing Phl p 7 and point mutant-4): approximately 20%
- recognition of cross-reactive allergen Aln g 4 by rabbit antiserum raised against the immunogen (recombinant Aln g 4): recognized the Phl p 7-cross-reactive allergen, Aln g 4
- patients whose serum IgE bound (dot blot) [4]: four out of ten
- IgE binding capacity (dot blot) ([4]; compared with Phl p 7 wild type): strongest reduction of IgE binding capacity
- induction of IgG anti-Phl p 7 antibody response (rPhl p 7 wild type): induced IgG anti-Phl p 7 antibody responses

B4: M1.6: Phl p 7-derived mutant, SEQ ID NO:4: 24E→24A (first EF-hand); 59E→59A (second EF-hand) (protein)
chain: MADDMERIFKRFDTNGDGKISLSALTDALRTLGSTSADEVQRMMAEIDTDGDGFIDFNAFISFCNANPGLMKDVAKVF
- patients whose serum IgE bound (dot blot) [4]: six out of ten
